Source: the DeepSol protein solubility set

Assay: soluble on expression in E. coli; label from the status in PepcDB or PDB records

Row | Sequence | soluble on expression in E. coli
1 | MSLESRPLHVVLGNEACDLDSTVSALALAFYLAKTTEAEEVFVPVLNIKRSELPLRGDIVFFLQKVHIPESILIFRDEIDLHALYQAGQLTLILVDHHILSKSDTALEEAVAEVLDHRPIEPKHCPPCHVSVELVGSCATLVTERILQGAPEILDRQTAALLHGTIILDCVNMDLKIGKATPKDSKYVEKLEALFPDLPKRNDIFDSLQKAKFDVSGLTTEQMLRKDQKTIYRQGVKVAISAIYMDLEAFLQRSNLLADLHAFCQAHSYDVLVAMTIFFNTHNEPVRQLAIFCPHVALQTTICEVLERSHSPPLKLTPASSTHPNLHAYLQGNTQVSRKKLLPLLQEALSAYFDSMKIPSGQPETADVSREQVDKELDRASNSLISGLSQDEGHHHHHH | not soluble
2 | MSLETILLNINISADKTSPKTLRKQLNKVLTSLDVNIQTSRKVELVTSEIVTNIVTHNNDNHTNITLKFGKCKNGYWLDIYDNGAEFDPLSGDIPELNDEFLLFESSRGLYLIRSQCDFIEYEYLNKIKNNRIHCVWYDENINAGPTILIIDDSEIELAIVSNLLSDQFSVLQASNGLDAISILDSHSIDIIISDLHMPTINGVDLYVYLQKHLDKIIPFIFLTSDTNEMTGLREDAYRIGADDVLTKPISQQMLVNAIERALKRNNEGHHHHHH | soluble
3 | MSLEVQDDINSVDDIDSKLYHSVEWFYENKMYEDAIVATIAIIRRFLLCGKLAPLKAFSKGKNFKLLLVEYDTQLQTKSLIFQNEPEIVTEEDKEELLAYASLIEGLILIDEWKKFVSTQINSQGKWLSTGVDSSIDKTSKTLLNLIFKWFKNTSSEKDSDLAIYSEFRSIYVPYLIIELLKIFQNAREKDWKYMRSAFSLINDVANEEQNDFLSCFLKCGRLDEFLVKAGEVSIVAVEKGISGIFYEGHHHHHH | not soluble
4 | MSLEYKLTPSYLLKENMVLACGNILFADDGFSVHVIEKLQELLTEEEKENIALVDAGAGAPQQVLTLIDSEAKTKKIIVVDIIDYGLEPGEIKILTMDDLPKPEHTKVDSHDWPLSTTMYRVFRDAPHEIDFKVVGCQKKYVSEPDVVIELSEEVQNAVDVAVDIVLSELRGKPINEGHHHHHH | soluble
5 | MSLFARQLQSLTASGIRTQQVRLASTEVSFHTKPCKLHKLDNGPNTSVTLNREDALKYYRDMQVIRRMESAAGNLYKEKKIRGFCHLYSGQEACAVGMKAAMTEGDAVITAYRCHGWTWLLGATVTEVLAELTGRVAGNVHGKGGSMHMYTKNFYGGNGIVGAQQPLGAGVALAMKYREQKNVCVTLYGDGAANQGQLFEATNMAKLWDLPVLFVCENNGFGMGTTAERSSASTEYYTRGDYVPGIWVDGMDILAVREATKWAKEYCDSGKGPLMMEMATYRYHGHSMSDPGTSYRTREEIQEVRKTRDPITGFKDRIITSSLATEEELKAIDKEVRKEVDEALKIATSDGVLPPEALYADIYHNTPAQEIRGATIDETIVQPFKTSADVLKSIGRA | not soluble
6 | MSLGAMPTVRDLRLIPFRIPLKAPLRWGKSSELAALEHALLEVELSDGSIGRAEVAIRPTIYGETLGSVRAGLEYLRPRLLGLEADDQEGIRAVLEAFPFNFGLKGALDTALWEAWARSEGEELYQVLKPAKHRVRVAYILGLGEEDEVLEDARMAFGAGVRVFKVKVGRDLEADTRRILRLKEAFPEAELYADANESLPPKEAERYLLAWKELGLRYVEEPLPVEEVEARRALREKGILSLIADDAAMTPKDLKRELALNTFDVLNLKPARTGVTWTLEMLALARERGKKAMVGSQAQSAFGAYQSALLAFQQGVTEPCELAFHLKAEGGFFPFPPFREGWLYWEDLVEARFDEEAFARYALKEAEGHHHHHH | soluble
7 | MSLGCTNFIQVGTVLGAPNVFLIGDAREVGHQGYENILREAKKVLTFDLDEKLRGFKNIVVYPGTFDFEGIVKNLDSDAKITVDIAYDVNDADELSRVYGASHALAISTSSELFSSLALENLGPLLKACKTRSAKHLLLKENRGGSRLFDLESGESWEIPATLARTVNSVGVGDVYTAVFAALIDHGALTAALRGMQAATRYAQTTFPDDFKRDVQRDFKLTPDEVLSLGGVLLPWHDRPHFEIYLAAPDFSYMEKAEVDAAVEALLYHNFTVRRPVQDNGEACPGTPAEDLRSYYDRDVELLRRCSLVFAVPLNRDPGTLVEIGLAIAAGTPVVTYDPRQENNNTMVICGSDAYSDDLDQCLNSTFELLAKLREQAKEGHHHHHH | not soluble
8 | MSLGDQKPATIYAPTVRVTPNPAWPQVSWQLLVAKPSAARIIDSPRINVRPTPGELQVYHGAGWAQPATDMLEDSVVRAFEDSGKIAAVARIGAGIRSDYKLAIDVRRFESDYAGQSLPAATIELNAKLLHSSDQRVVASRTFTVARPSSSTDTAAVAAAFEQALTQVTTELVGWTLITGQQDSQTLPRALEGHHHHHH | soluble
9 | MSLGESRKHIDYKKGTINLNGVEYPLNDTNFPTINPENPLELLEEEAELLDKLQASFLGSEKLQKHMQLLFAKGGMYLKYNSNLLFHACIPMEPNGEFSKLYVEDGYYKGKALMDKIDNIVRQAYYDRKNVEVNKKHRDFIWYLWAGRLSPLFGKDVMKTFERYFIDDKSTHKEIKNPYHKLINDEKICDKIFEEFGLNPRTSHIINGHIPVKVKEGESPIKANGKLLIIDGGFSRAYQSTTGIAGYTLTYNSYGMKLASHLKFISKEAAIKDGTDMISSHIIVETKSKRMKVKDTDIGKNIQNQINDLKKLLKAYRIGLIKSNEGHHHHHH | not soluble
10 | MSLGFASQQEAVNDFWGWPSDESDKEAVEASIRKYANAIADTINKYGYDGFDIDYEPNYGNKGNIVDDDDRMFIFVDELGKHFGPKSGTGKLLIIDGEPQSIKNRPDVGPYFDYFIIQAYKPGNDNNLDKRLIDGGVAGPGLVQTYGSVMSEEQITKMTIMTENFEAVDAAMDGGYPYTDRYGNSMKSLEGMARWQPKNGFRKGGVGSYHMEAEYPTNPEYKNLRKAIQIMNPSTKPLIKYEGHHHHHH | soluble
11 | MSLGGPNADAQRANQRNVKKPNTQTKIRLPESVRTKKPVDMDVAPVRQSSRDEIRYAANELDTFIERELLAEGIAAEELASDEVFLRRIYLDVAGRIPTLQEAEQFLSSKSSDRREELIDQLLSSPDYVSHTYNWWADTLRLVDRPQPNLVADPYNGYIKESIAENKPYDKWVYEMLTADGKVWDNPAVGFQLRDDGMPLPYIDNTVRVFLGTQIGCAQCHDHPFDEWSQYQFYQLAAFTAGTSTRMRKGDPGYEKTNPANDLINEGKKRYEKGRVPGEFQRIARANTYIVSERPRRLRLPHDYAYRDAKPKDFVEPKVLWGEIPSSAAKSTPREQFAAWVTSPENPRFSQTVVNRLWKRLMGVGFVDPVDDFRDENPCVNEAAMDYLCKELVRRGFDLKELTRIVLYSQTYQRKAVDYDITDGDLYYFPGPTVRRMTAEQVWDSILTLAVDNPWPFQRPTAKEMKPVMDLDFSKVDFEEVQRRSAKFKETYFASTYKRNLNQHAYQRNVLCRASELPAPLPADHFLRQFGQGDREVINGSQDEATVPQILAMFNGPITHVMLEPGSALVDNVLEVNNVKNRIDAIFLSVLTRKPSTEDRILASRELSSQNQTGVGYGNIIWALLNTREFLFVQEGHHHHHH | not soluble
12 | MSLGIKAVIFDLDGVIVSTDEYHYRAWKAMADEEGIYFDKRINERLRGVGRMESLEIILEKAKKTYNTKEKIQMTERKNFIYRELLNELTPKHILKGVMNVLETLRAKNIKIAIGSSSKNTSIILEKIKLDKYFDAVADGREIKKSKPNPEVFLLAAKKLKVSPEECLIVEDADAGVEAAIAGGMKVLAVGYASNNIKANYKFKDLSCVDIKEVICKEGHHHHHH | soluble
13 | MSLGKDVRFHTENWSYYPWRLWAEQFLQFEDWCLQASSKVPGIPLHVKRTVTFSTRQILDALSPSNFVLTNPDLLQETIRSNGQNLIRGTELAFQDFVEKITGSPPAGVENFIPGKQVAVTEGKVVYSNHLIELIQYTPQTEKVYKEPILILPAWIMKYYILDLLPENSLVNWLVRQGHTVFIVSWRNPTKEDRNIGLDDYYKLGAMDAINAVSNAIPHTKIHLMGYCLGGTLALLTAAAMAHDHDNRLKTLSLLAAQGDFIDAGELLLFITKSEVSFLKSMMWEQGYLDTKQMSGTFQMLRSYDLIWSKMVQDYMHGTQRGMIPLLAWNADATRMPYKMHSEYLEKLFLNNDFAEGRFILDGKPVVGENIRMPAFVVSTEKDHVAPWKSVYKTHLLINSDITFVLTNGGHNAGIVSEPGHEGRYYRIRERKMDSTYLDPTNWLKKAELREGSWWIAWHDWLVNHSSQKQVSAPKLDKNLPNAPGKYVLQKEGHHHHHH | soluble
14 | MSLGKPEFYDFCVHAVPDGANAVEELSSLSRHLGYSGIALANHSDKLPSKKPVLPSIEGFEVFRGIELVEENPSKLHGLVGKFRSSMDVLIVHGGSEAVNRAALENPRVDILNHPAFDKSSGLNQVLAKAAAENGVAIGITLRPLLHSRGSRRIRMLSDLKANLELARKYDVPLVLCSDAMSCYDLRSPMETLAFAEVCGLEEDEALDALSTVPKKIIKKNRPGPGYVREGIEVLEGEGHHHHHH | not soluble
15 | MSLGKQLAALPADEVVEQLELAVERFLIQRKIPDQTELGFILNHLHYQTKKGGAVGVQELNIDKNIHQIAVIGDLHGDAESTKYIFQKVLLNKTFMESGMAVFLGDYVDRGQHGINVLTSILAAKVVYGDRVITIRGNHESENLNRRYGFLDEVSRAYGHAFYHKTIAPFFKLLPVAYVASVTSHTTLANRILFVHGGLPRNATLDTLILRSKVDIPSSNDITDQRYTHSLENCLPEDAVQDILWSDPSQTVHGKDTLNDYTKNPRGAGILYSSEFYRKFATENRVLAMFRGHQVVKNGFRRDFFNHYTVFSSSDYVGMKNKGAYAVLDVRCMRTTITSEVDVIGLQNYKEVNLAHCIHAYPVVQKPENEGHHHHHH | soluble
16 | MSLGKYFGTDGVRGEANVELTPELAFKLGRFGGYVLSQHETERPKVFVARDTRISGEMLESALIAGLLSVGIEVYKLGVLATPGVSYLVRTEKASAGVMISASHNPALDNGIKFFGNDGFKLADDQELEIEALLDAPEDTLPRPSAEGLGTLVDYPEGLRKYEKFLVTTGTDLSGMTVALDTANGAASVSARDVFLDLNAEIAVIGEKPNGLNINDGVGSTRPEQLQELVKETGADLGLAFDGDSDRLIAVDETGEIVDGDRIMFIIGKYLSEKGLLAHNTIVTTVMSNLGFHKALDKQGINKAITAVGDRYVVEEMRSSGYNLGGEQSGHVIIMDYNTTGDGQLTAIQLAKVMKETGKSLSELAAEVTIYPQKLVNIRVENSMKERAMEVPAIANIIAKMEDEMAGNGRILVRPSGTEPLLRVMAEAPTDAEVDYYVDTIADVVRTEIGCDNEGHHHHHH | soluble
17 | MSLGMKSNEYNKGNYEAHKAYYAGTYEYGTDYDVEDDLYSLEFDDELLNDELEYLEDIGEPFYYEDLDNDFDNTLENQVEKDTYAALENKLRKYISKYNCYFGIYFVDLESGKEFGINDTEEFFAASTFKIPLNLYVYDMIRKGMLDPMTSLEYTEEDFEGGTGIIWNNESFGKTFTIKELLRLSIVYSDNVAVNMLLRCVGKANVKEYMRRLGGVVVDDGKNVSCPRDMAMYLKEVYELSENGDPWGRELVQNMINTKFYDRLPVLLPKNLKIAHKTGNYTGVVHDVGIVYAEKPYIVVVMTKNVKNGQSANKAIANISKMIYDYVVKQSGKDEGHHHHHH | soluble
18 | MSLGNSRSRVGRSFCSQFLPEEQAEIDQLFDALSSDKNSPNVSSKSFSLKALQNHVGEALPPEMVTRLYDGMRRVDLTGKAKGPSENVSQEQFTASMSHLLKGNSEEKSLMIMKMISATEGPVKAREVQKFTEDLVGSVVHVLSHRQELRGWTGKEAPGPNPRVQVLAAQLLSDMKLQDGKRLLGPQWLDYDCDRAVIEDWVFRVPHVAIFLSVVICKGFLVLCSSLDLTTLVPERQVDQGRGFESILDVLSVMYINAQLPREQRHRWRLLFSSVLHGHSFSQLCGHITHRGPCVAVLEDHDKHVFGGFASCSWEVKPQFQGDNRCFLFSICPSMAVYTHTGYNDHYMYLNHGQQTIPNGLGMGGQHNYFGLWVDVDFGKGHSRAKPTCTTYNSPQLSAQENFQFDKMEVWAVGDPSEEQLAKGNKSILDADPEAQALLEISGHSRHSEGLREVPDDEGHHHHHH | soluble
